Molecular target: DNA adenine-N6 methyltransferase M.TaqI (Thermus aquaticus) (UniProt P14385)
Experiment: competition, 2-aminopurine fluorescence titration
Conditions: 20 mM TrisOAc pH 7.9, 10 mM Mg(OAc)2, 50 mM KOAc, 0.01% reduced Triton X-100, with 1 mM DTT (unlocked) or no reducing agent (locked), 400 nM duplex vs 200 nM …

DNA adenine-N6 methyltransferase M.TaqI (Thermus aquaticus), sequence (P14385 whole entry): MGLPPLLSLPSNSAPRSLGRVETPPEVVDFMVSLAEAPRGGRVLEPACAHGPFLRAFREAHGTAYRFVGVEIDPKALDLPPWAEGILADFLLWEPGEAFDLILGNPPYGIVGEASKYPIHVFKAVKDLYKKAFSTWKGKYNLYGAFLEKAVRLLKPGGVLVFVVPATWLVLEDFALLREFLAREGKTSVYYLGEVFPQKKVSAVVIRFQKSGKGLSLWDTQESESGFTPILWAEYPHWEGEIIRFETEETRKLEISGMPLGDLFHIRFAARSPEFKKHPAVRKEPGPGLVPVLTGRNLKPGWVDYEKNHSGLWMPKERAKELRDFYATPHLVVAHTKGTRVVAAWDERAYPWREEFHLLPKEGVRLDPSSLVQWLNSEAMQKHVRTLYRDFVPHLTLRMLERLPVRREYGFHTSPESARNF

Row | Sequence | Kd (strand 1 position 9 (N) = 6-thio-2'-deoxyinosine, S-ethylene-S interstrand cross-linked to 4-thio-2'-deoxyuridine at strand 2 U6, strand 2 A9 = N6-methyl-dA) [nM] | Kd (strand 1 position 9 (N) = 6-thio-2'-deoxyinosine (I6S), strand 2 U6 = 4-thio-2'-deoxyuridine (U4S), A9 = N6-methyl-dA, all other residues DNA) [nM]
1 | GCCGCTCGNTGCCG / CGGCAUCGAGCGGC [1I6S-Et-S4U2 (locked, cross-linked A/T analog)] | 6 | 
2 | GCCGCTCGNTGCCG / CGGCAUCGAGCGGC [1I6S·2U4S (unlocked A/T analog)] |  | 1
